PMC11112410 (Frontiers in Immunology, 2024)

Tests used:
[1] = target: T1, recombinant Car b 1.0109 (hornbeam) (Carpinus betulus, isoallergen Car b …, UniProt B6RQR6, strain); assay: ELISA; recombinant allergens or unrelated antigens (2 µg/ml in bicarbonate buffer) coated on the plate; nanobodies 2 µg/ml (Figure 2A) or 1 µg/ml (Figures 2B-C) in 0.1% BSA in PBST, overnight at 4°C; detected with HRP-labelled anti-HA-tag antibody; conditions: both partners purified
T1 construct: hornbeam pollen allergen Car b 1, isoallergen Car b 1.0109; source: recombinant; provided by Prof; Barbara Bohle (IPA, MUV)

[2] = target: T2, recombinant Phl p 5.0101 (timothy grass) (timothy grass); assay: as above; conditions: both partners purified
T2 construct: timothy grass pollen allergen Phl p 5, isoallergen Phl p 5.0101; also called major grass pollen allergen; source: bought: Biomay AG (recombinant)
T2 chain: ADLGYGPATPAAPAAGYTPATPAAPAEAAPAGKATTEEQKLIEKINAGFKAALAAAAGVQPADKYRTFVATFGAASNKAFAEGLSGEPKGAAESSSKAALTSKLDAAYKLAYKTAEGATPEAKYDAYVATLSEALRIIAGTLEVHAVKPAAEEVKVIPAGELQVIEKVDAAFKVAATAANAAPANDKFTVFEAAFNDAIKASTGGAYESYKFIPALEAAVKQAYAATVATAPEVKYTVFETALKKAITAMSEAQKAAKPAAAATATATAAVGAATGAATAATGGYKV

[3] = target: T3, natural Cor a 1 in hazel pollen extract (hazel (endogenous in hazel pollen)); assay: far-Western, overlay or dot blot; pollen extracts separated by reducing SDS-PAGE, blotted on nitrocellulose; strips incubated with Nb32 (1 µg/ml) or Nb32ILZ (1.15 µg/ml) in Buffer A at 4°C overnight; detected with HRP-labelled anti-HA-tag antibody; conditions: one partner purified
T3 construct: natural Cor a 1 of hazel pollen extract; Unpurified extract; band at around 17 kDa on blots; source: endogenous, hazel pollen (Allergon) extract
T3 chain: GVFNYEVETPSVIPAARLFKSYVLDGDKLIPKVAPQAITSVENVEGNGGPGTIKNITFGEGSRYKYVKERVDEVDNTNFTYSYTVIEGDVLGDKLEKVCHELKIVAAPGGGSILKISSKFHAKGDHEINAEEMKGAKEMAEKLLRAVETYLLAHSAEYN

[4] = target: T4, recombinant Aln g 1.0101 (alder) (alder); assay: ELISA; IgE inhibition: recombinant allergens (1 µg/ml) coated, pre-incubated with Nb32 (10 µg/ml) or Nb32ILZ (11.5 µg/ml) overnight at 4°C, then patients' sera 1:10; bound IgE detected with AKP-labelled anti-human-IgE antibody; conditions: both partners purified
T4 construct: alder pollen allergen Aln g 1, isoallergen Aln g 1.0101; source: bought: Biomay AG (recombinant)
T4 chain: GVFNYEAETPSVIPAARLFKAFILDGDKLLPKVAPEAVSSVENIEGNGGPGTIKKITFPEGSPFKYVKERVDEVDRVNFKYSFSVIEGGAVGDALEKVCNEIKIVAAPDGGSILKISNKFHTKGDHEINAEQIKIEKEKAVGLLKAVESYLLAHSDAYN

[5] = target: T5, recombinant Cor a 1.0103 (hazel) (Corylus avellana, isoallergen Cor a …, UniProt Q08407, strain); assay: as above; conditions: both partners purified
T5 construct: source: bought: Biomay AG (recombinant)

[6] = target: T6, recombinant Bet v 1.0101 (birch) (birch); assay: SPR; Biacore T200, CM5 chip, 25°C; allergens amine-coupled; nanobodies injected in HBS-EP+ (Nb32ILZ 0.172-44 nM, Nb32 0.313-40 nM), multicycle kinetics, 30 min dissociation; printed kd from the 1:1 (Langmuir) binding model for both nanobodies; conditions: both partners purified
T6 construct: major birch pollen allergen Bet v 1, isoallergen Bet v 1.0101; also called major birch pollen allergen; source: bought: Biomay AG (recombinant)
T6 chain: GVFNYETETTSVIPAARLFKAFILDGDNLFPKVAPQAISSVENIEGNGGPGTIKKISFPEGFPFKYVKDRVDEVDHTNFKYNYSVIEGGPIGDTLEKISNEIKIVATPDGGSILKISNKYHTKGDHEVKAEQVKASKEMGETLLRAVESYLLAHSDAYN

[7] = target: T4, recombinant Aln g 1.0101 (alder); assay: as above; conditions: both partners purified
[8] = target: T5, recombinant Cor a 1.0103 (hazel); assay: as above; conditions: both partners purified

binding result [1]: binds
binding result [2]: no binding
binding result [3]: binds
percent inhibition of patients' IgE binding [4]: 65%
percent inhibition of patients' IgE binding [5]: 48%
koff [6]: 9.9e-05 s⁻¹
koff [7]: 0.0001 s⁻¹
koff [8]: 0.00021 s⁻¹
B1: Bet v 1-specific nanobody monomer Nb32 (VHH)
VHH: QVQLVESGGGSVQSGGSLRLSCAASGYTYSSYCMAWFRQAPGKKREGVAAIDTDGSTDYADSVKGRFAISQDNAKNTLYLQMNSLKPEDTAMYYCAAYGGSCRRGTGSGYWGQGTQVTVSS
notes: as the chain of m1 (Nb32ILZ) without the ILZ domain: Nb32 VHH and hinge; also called Nb32 monomer; not shown: HA, C-terminal, kept; His6, C-terminal, kept
